According to paper PMC6555819, “Comprehensive study of nuclear receptor DNA binding provides a revised framework for understanding receptor specificity”:
Changes are numbered by the printed parent chain.

B1: NRC3_wobSeed130_DR5_G14T_o1 (dsDNA)
DNA 1: GCCTCGAAAGGTCTTGCTCAGGTGAGTATACCAAACGCGATTGACAGCGTAGAATGAAGG
DNA 2: CCTTCATTCTACGCTGTCAATCGCGTTTGGTATACTCACCTGAGCAAGACCTTTCGAGGC
B2: NRC3_wobSeed5_DR0_T6A_o1 (dsDNA)
DNA 1: GCCCTAACGGGTCAAGGTTATAGCACGGGTGGTACGGCGATTGACAGCGTAGAATGAAGG
DNA 2: CCTTCATTCTACGCTGTCAATCGCCGTACCACCCGTGCTATAACCTTGACCCGTTAGGGC
B3: NRC3_wobSeed114_DR4_G10T_o1 (dsDNA)
DNA 1: GCAATACAGTGTCATCGTAGGCCAGAGTACGCACAGGCGATTGACAGCGTAGAATGAAGG
DNA 2: CCTTCATTCTACGCTGTCAATCGCCTGTGCGTACTCTGGCCTACGATGACACTGTATTGC
B4: NRC3_wobSeed114_DR4_G11A_o1 (dsDNA)
DNA 1: B3 DNA 1 with T10G, G11A
DNA 2: B3 DNA 2 with C50T, A51C
B5: NRC3_wobSeed88_DR3_T25A_o1 (dsDNA)
DNA 1: GCTAGCCTAGGTCATGCGGGCCAGAATAGTGTCGGCGCGATTGACAGCGTAGAATGAAGG
DNA 2: CCTTCATTCTACGCTGTCAATCGCGCCGACACTATTCTGGCCCGCATGACCTAGGCTAGC
B6: NRC3_wobSeed88_DR3_A28G_o1 (dsDNA)
DNA 1: B5 DNA 1 with A25T, A28G
DNA 2: B5 DNA 2 with T33C, T36A
B7: NRC3_wobSeed93_DR3_T12A_o1 (dsDNA)
DNA 1: GCAGTCAAAGTACATCTAGGTAACGTAAGATATGCTGCGATTGACAGCGTAGAATGAAGG
DNA 2: CCTTCATTCTACGCTGTCAATCGCAGCATATCTTACGTTACCTAGATGTACTTTGACTGC
B8: NRC3_wobSeed98_DR4_G20T_o1 (dsDNA)
DNA 1: GCACTAGTTGGTCAGCTGATGTCACACACAATTCGGGCGATTGACAGCGTAGAATGAAGG
DNA 2: CCTTCATTCTACGCTGTCAATCGCCCGAATTGTGTGTGACATCAGCTGACCAACTAGTGC
B9: NRC3_wobSeed4_DR0_T22C_o1 (dsDNA)
DNA 1: GCCCTACTGGGCCAAGGTCATCGATCAGTCAAAGCAGCGATTGACAGCGTAGAATGAAGG
DNA 2: CCTTCATTCTACGCTGTCAATCGCTGCTTTGACTGATCGATGACCTTGGCCCAGTAGGGC
B10: NRC3_wobSeed110_DR4_C7A_o1 (dsDNA)
DNA 1: GCTCTGATAGGTCAACGATGGTCAGCTAATCTGCTAGCGATTGACAGCGTAGAATGAAGG
DNA 2: CCTTCATTCTACGCTGTCAATCGCTAGCAGATTAGCTGACCATCGTTGACCTATCAGAGC
B11: NRC3_wobSeed125_DR5_G10C_o1 (dsDNA)
DNA 1: GCCCTTACGCGTCACTGACAGGTTATAGCATTTGGAGCGATTGACAGCGTAGAATGAAGG
DNA 2: CCTTCATTCTACGCTGTCAATCGCTCCAAATGCTATAACCTGTCAGTGACGCGTAAGGGC
B12: NRC3_wobSeed125_DR5_G11C_o1 (dsDNA)
DNA 1: B11 DNA 1 with C10G, G11C
DNA 2: B11 DNA 2 with C50G, G51C
B13: NRC3_wobSeed17_DR0_T18C_o1 (dsDNA)
DNA 1: GCATATGTAGGTTAGGGCCATTCAGAAAGTAGGGAAGCGATTGACAGCGTAGAATGAAGG
DNA 2: CCTTCATTCTACGCTGTCAATCGCTTCCCTACTTTCTGAATGGCCCTAACCTACATATGC
B14: NRC3_wobSeed17_DR0_T18A_o1 (dsDNA)
DNA 1: B13 DNA 1 with C18A
DNA 2: B13 DNA 2 with G43T
B15: NRC3_wobSeed142_DR5_A5G_o1 (dsDNA)
DNA 1: GCATGCCAAGGTGATCGTGAGGTCGTTGATACTAACGCGATTGACAGCGTAGAATGAAGG
DNA 2: CCTTCATTCTACGCTGTCAATCGCGTTAGTATCAACGACCTCACGATCACCTTGGCATGC
B16: NRC3_wobSeed142_DR5_G21T_o1 (dsDNA)
DNA 1: B15 DNA 1 with G5A, G21T
DNA 2: B15 DNA 2 with C40A, C56T
B17: NRC3_wobSeed58_DR2_C13G_o1 (dsDNA)
DNA 1: GCATCGAAAGGTGGTGAGGTGAGTATACAGAAAGGCGCGATTGACAGCGTAGAATGAAGG
DNA 2: CCTTCATTCTACGCTGTCAATCGCGCCTTTCTGTATACTCACCTCACCACCTTTCGATGC
B18: NRC3_wobSeed74_DR3_G17T_o1 (dsDNA)
DNA 1: GCTCTAGTTGGTCACGTAGGTCACACACGACGGGTAGCGATTGACAGCGTAGAATGAAGG
DNA 2: CCTTCATTCTACGCTGTCAATCGCTACCCGTCGTGTGTGACCTACGTGACCAACTAGAGC
B19: NRC3_wobSeed74_DR3_G20C_o1 (dsDNA)
DNA 1: B18 DNA 1 with T17G, G20C
DNA 2: B18 DNA 2 with C41G, A44C
B20: NRC3_wobSeed81_DR3_C22G_o1 (dsDNA)
DNA 1: GCATCTCTAGGTAACCAAGTTGAGTGAATGCCGAACGCGATTGACAGCGTAGAATGAAGG
DNA 2: CCTTCATTCTACGCTGTCAATCGCGTTCGGCATTCACTCAACTTGGTTACCTAGAGATGC
B21: NRC3_wobSeed81_DR3_C22A_o1 (dsDNA)
DNA 1: B20 DNA 1 with G22A
DNA 2: B20 DNA 2 with C39T
B22: NRC3_wobSeed99_DR4_T5C_o1 (dsDNA)
DNA 1: GCTCCCGGAGGACACGAAAGGTCAGAGCTCGACATCGCGATTGACAGCGTAGAATGAAGG
DNA 2: CCTTCATTCTACGCTGTCAATCGCGATGTCGAGCTCTGACCTTTCGTGTCCTCCGGGAGC
B23: NRC3_wobSeed46_DR1_A15T_o1 (dsDNA)
DNA 1: GCTTACCAAGGTGATAGGTCGTTGATGCACGCCTTGGCGATTGACAGCGTAGAATGAAGG
DNA 2: CCTTCATTCTACGCTGTCAATCGCCAAGGCGTGCATCAACGACCTATCACCTTGGTAAGC
B24: NRC3_wobSeed61_DR2_G10T_o1 (dsDNA)
DNA 1: GCCGTCCAATGTCAGCAGGTCAGTGAAAGCGACGTGGCGATTGACAGCGTAGAATGAAGG
DNA 2: CCTTCATTCTACGCTGTCAATCGCCACGTCGCTTTCACTGACCTGCTGACATTGGACGGC
B25: NRC3_wobSeed6_DR0_T22A_o1 (dsDNA)
DNA 1: GCCCTAGCAGGCCAGGGTCACACAAGCATTTCGCTTGCGATTGACAGCGTAGAATGAAGG
DNA 2: CCTTCATTCTACGCTGTCAATCGCAAGCGAAATGCTTGTGTGACCCTGGCCTGCTAGGGC

Each binder was assayed against VDR:RXRa (Homo sapiens, UniProt P11473;P19793 full;full) (assay: no ligand; PBM; 270 nM : 90 nM RXRa; PBS pH 7.4, 2% milk, 0.02% Triton X-100, 1 mM DTT, BSA, 0.4 mg/ml salmon testes DNA). Settings: tags: His kept;His cleaved; copies: 1;1; label: surface-attached array probe.
Procedure, shortened: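 Custom Agilent 4×180K protein-binding microarrays carried double-stranded probes. Their 34-nt variable regions held direct-repeat seeds, single-nucleotide variants, half-site ablations and random human genomic background sequences. Arrays were incubated 1 h with ligand-free nuclear receptor dimers in PBS pH 7.4, 2% milk, 0.02% Triton X-100, 1 mM DTT, 0.2 mg/mL BSA and 0.4 mg/ml salmon testes DNA. Antibodies against each partner (one per run) detected binding, and scanned fluorescence was regression-normalized. Binding z-scores use random background probes as reference.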

Sequence of VDR:RXRa (P11473 whole entry, chain 1 of 2): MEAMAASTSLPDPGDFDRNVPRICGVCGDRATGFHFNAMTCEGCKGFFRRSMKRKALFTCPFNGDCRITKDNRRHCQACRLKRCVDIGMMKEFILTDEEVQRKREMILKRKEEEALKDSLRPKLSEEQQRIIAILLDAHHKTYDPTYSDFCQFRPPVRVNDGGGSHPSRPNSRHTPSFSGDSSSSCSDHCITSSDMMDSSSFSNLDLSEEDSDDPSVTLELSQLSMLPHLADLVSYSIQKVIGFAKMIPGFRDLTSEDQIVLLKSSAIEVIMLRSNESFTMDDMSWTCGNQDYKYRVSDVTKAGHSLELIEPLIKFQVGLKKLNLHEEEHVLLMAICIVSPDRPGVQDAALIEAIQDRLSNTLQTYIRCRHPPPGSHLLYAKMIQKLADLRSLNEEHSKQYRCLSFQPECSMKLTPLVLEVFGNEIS
Sequence of VDR:RXRa (P19793 whole entry, chain 2 of 2): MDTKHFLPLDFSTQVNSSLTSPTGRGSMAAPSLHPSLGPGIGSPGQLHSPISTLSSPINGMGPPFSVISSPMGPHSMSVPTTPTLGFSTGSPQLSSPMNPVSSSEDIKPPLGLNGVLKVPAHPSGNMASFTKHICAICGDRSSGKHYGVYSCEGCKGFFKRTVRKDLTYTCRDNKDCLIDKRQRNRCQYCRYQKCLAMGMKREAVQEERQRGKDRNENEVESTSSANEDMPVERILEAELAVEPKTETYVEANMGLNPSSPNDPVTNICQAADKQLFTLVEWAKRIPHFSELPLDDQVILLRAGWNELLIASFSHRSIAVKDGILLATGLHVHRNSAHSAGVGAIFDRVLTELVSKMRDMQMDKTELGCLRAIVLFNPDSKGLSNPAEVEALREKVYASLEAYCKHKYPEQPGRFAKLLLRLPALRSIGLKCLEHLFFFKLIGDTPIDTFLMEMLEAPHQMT

**Q.** How did the binding signal turn out when B1 was run?
**A.** 0.2 PBM z-score against 500 random probes

**Q.** Which binding signal does the source give for B2 here?
**A.** 3.06 PBM z-score against 500 random probes

**Q.** For B3, which binding signal is on record?
**A.** 0.5 PBM z-score against 500 random probes

**Q.** For B4, which binding signal is on record?
**A.** 0.25 PBM z-score against 500 random probes

**Q.** With B5 as the binder, how does the binding signal read?
**A.** 3.12 PBM z-score against 500 random probes

**Q.** B6 was tested. Which binding signal did it give?
**A.** 3 PBM z-score against 500 random probes

**Q.** For B7, which binding signal is on record?
**A.** 0.15 PBM z-score against 500 random probes

**Q.** For B8, which binding signal is on record?
**A.** 0.23 PBM z-score against 500 random probes

**Q.** Which binding signal does the source give for B9 here?
**A.** 3.17 PBM z-score against 500 random probes

**Q.** Which binding signal does the source give for B10 here?
**A.** 3.1 PBM z-score against 500 random probes

**Q.** For B11, which binding signal is on record?
**A.** 0.17 PBM z-score against 500 random probes

**Q.** Which binding signal does the source give for B12 here?
**A.** 0.16 PBM z-score against 500 random probes

**Q.** B13 was tested. Which binding signal did it give?
**A.** 0.42 PBM z-score against 500 random probes

**Q.** How did the binding signal turn out when B14 was run?
**A.** 0.41 PBM z-score against 500 random probes

**Q.** How did the binding signal turn out when B15 was run?
**A.** 3.08 PBM z-score against 500 random probes

**Q.** How did the binding signal turn out when B16 was run?
**A.** 0.3 PBM z-score against 500 random probes

**Q.** How did the binding signal turn out when B17 was run?
**A.** 0.28 PBM z-score against 500 random probes

**Q.** Which binding signal does the source give for B18 here?
**A.** 3.15 PBM z-score against 500 random probes

**Q.** With B19 as the binder, how does the binding signal read?
**A.** 0.37 PBM z-score against 500 random probes

**Q.** Which binding signal does the source give for B20 here?
**A.** 0.49 PBM z-score against 500 random probes

**Q.** Which binding signal does the source give for B21 here?
**A.** 0.37 PBM z-score against 500 random probes

**Q.** How did the binding signal turn out when B22 was run?
**A.** 3.26 PBM z-score against 500 random probes

**Q.** How did the binding signal turn out when B23 was run?
**A.** 0.48 PBM z-score against 500 random probes

**Q.** With B24 as the binder, how does the binding signal read?
**A.** 0.44 PBM z-score against 500 random probes

**Q.** With B25 as the binder, how does the binding signal read?
**A.** 3.03 PBM z-score against 500 random probes
